From patent publication EP4559472A1

Molecular target: Biotinylated C4b (UniProt P0C0L4)
Experiment: SPR, biotinylated C4b on streptavidin chip, 1:1 steady-state affinity model

mini-C4BP, sequence (P08603 other isoform, or with tags, fused parts or gaps): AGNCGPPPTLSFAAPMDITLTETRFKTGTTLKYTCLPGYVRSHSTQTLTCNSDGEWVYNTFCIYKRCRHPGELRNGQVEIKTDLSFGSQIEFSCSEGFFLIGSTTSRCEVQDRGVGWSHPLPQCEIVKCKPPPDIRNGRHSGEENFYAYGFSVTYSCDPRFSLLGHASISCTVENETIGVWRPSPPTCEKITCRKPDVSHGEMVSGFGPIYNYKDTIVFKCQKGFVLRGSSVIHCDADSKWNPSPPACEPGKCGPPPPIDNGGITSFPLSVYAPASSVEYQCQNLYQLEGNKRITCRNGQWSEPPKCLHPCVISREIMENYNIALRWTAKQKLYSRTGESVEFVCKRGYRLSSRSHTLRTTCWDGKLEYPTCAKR

- Kd: 600 nM
Substance: mini-C4BP (from UniProt P08603 1107-1231)
